# Measurements from patent publication US20220125947A1 (published 2022).
# B1: VG9B463 (antibody, human IgG1, lambda, V domains shown)
# VH: EVQLVESGGGLVKPGGSLRLSCSASGFTFSNYDMNWVRQAPGKGLEWVSSISSSSSYIYYADSVKGRFTISRDNAKNSLYLQMNSLRAEDTAVYHCARDVGVTTDYYYYGMDVWGQGTTVTVSS
# VL: QPVLTQSSSASGTPGQRVTISCSGSSSNIGSNTVNWYQQFPGTAPKLLIYTNTQRPSGVPDRFSGSKSGTLVSLAISGLQSEDEADYYCAAWDDSLNAWVFGGGTKLTVLG
# notes: IgG1, lambda
# B2: VG9B121 (antibody, human IgG1, kappa, V domains shown)
# VH: EVQLVESGGGLVKPGGSLRLSCVASGFTFSDYAMDWVRQAPGKGLDWISSISSTSNYIFYADSVKGRFTISRDNAKNSLYLQMNSLRVEDSAVYYCANSYNWNYGGAFDIWGQGTMVTVSS
# VL: DIQMTQSPGTLSSSPGERATLSCRASQSVSSSYFAWYQQKPGRAPRLLIYGASSRATGIPDRFSGSGSGTDFTLTISRLEPEDFAVYFCQQYGRSPLTFGGGTKVEIKR
# notes: IgG1, kappa
# B3: VG9B469 (antibody, human IgG1, kappa, V domains shown)
# VH: EVQLVESGGGLVKPGGSLRLSCAASGFTFSHYDMNWVRQAPGKGLEWVSSISSSSSYIFYADSVKGRFTISRDNAKNSLLLQMNSLRAEDTAVYHCARDRGVGDTSDYYSFGLDVWGQGTMVTVSS
# VL: DIVMTQSPGTLSLSPGERATLSCRASQNVSSTYLAWYQQKPGQAPRLLIYGACSRATGIPDRFSGSGSGTDFTLTISRLEPEDYAVYYCQQYGSSPPYTFGRGTKLEIKR
# notes: IgG1, kappa
# Molecular target: γδ T cell receptor on human γδ T cells (AG000003021) (human)
# Assay: flow cytometry, DRC binding at 37°C on human γδ T cells
# Procedure: Binding of antibodies to human γδ T cells or SKW cell lines expressing Vγ9/Vδ2, Vγ9/Vδ2 or Vγ5/Vδ2 was carried out by flow cytometry. Briefly, the cells were centrifuged at 300×g for 5 minutes and the pellet was resuspended in 34 ml fresh media (in RPMI+10% FBS). 50 μL of the cells were then plated (44K cells/well) into assay plates. Samples were incubated for one hour at 37° C. in tissue culture (TC) incubator followed by wash steps by adding 100 μl FACS staining buffer. Secondary detention antibodies (A647 conjugated anti-human IgG Fc specific antibody (2 μg/mL) along with AF488 anti mouse CD3, clone OKT3 at 1 ug/mL) were added at 50 μL/well to appropriate wells according to the plate map. After incubating for 60 minutes at 37° C. in the TC incubator, cells were again washed as described above. This is followed by resuspension in 20 μL/well running buffer containing 1:1000 dilution of Sytox blue dead cell stain and the plates were run on iQue Screener.
# Gating and data analysis: Human anti-human Vγ9 antibody (VG9B2 mAb at 10 nM) was used to mark the gating of positive population. All cells were first gated for singlets on SCS-A vs. SCS-H dot plot, live/dead followed by CD3 positive population, and this subset of CD3 positive population was gated for Vγ9 positive binding using positive control mAb. Cells were also assessed for cell binding of control mAbs by RL1 (A647) Geomeans from the live cell population. Advanced metrics were used and normalization metrics were chosen to calculate fold over background wells containing secondary antibody alone (designated as ‘background’ within ForeCyt settings).
row,Max. Activity [fold over background],Binder
1,3030,B1
2,3670,B2
3,3000,B3
